Experimental data as given in IntAct's records for PubMed 22396542.

B1: Ceramide transfer protein (Homo sapiens), Q9Y5P4-2 (parent)
chain: MSDNQSWNSSGSEEDPETESGPPVERCGVLSKWTNYIHGWQDRWVVLKNNALSYYKSEDETEYGCRGSICLSKAVITPHDFDECRFDISVNDSVWYLRAQDPDHRQQWIDAIEQHKTESGYGSESSLRRHGSMVSLVSGASGYSATSTSSFKKGHSLREKLAEMETFRDILCRQVDTLQKYFDACADAVSKDELQRDKVVEDDEDDFPTTRSDGDFLHSTNGNKEKLFPHVTPKGINGIDFKGEAITFKATTAGILATLSHCIELMVKREDSWQKRLDKETEKKRRTEEAYKNAMTELKKKSHFGGPDYEEGPNSLINEEEFFDAVEAALDRQDKIEEQSQSEKVRLHWPTSLPSGDAFSSVGTHRFVQKVEEMVQNHMTYSLQDVGGDANWQLVVEEGEMKVYRREVEENGIVLDPLKATHAVKGVTGHEVCNYFWNVDVRNDWETTIENFHVVETLADNAIIIYQTHKRVWPASQRDVLYLSVIRKIPALTENDPETWIVCNFSVDHDSAPLNNRCVRAKINVAMICQTLVSPPEGNQEISRDNILCKITYVANVNPGGWAPASVLRAVAKREYPKFLKRFTSYVQEKTAGKPILF

Variants of: B1
Conditions: with samp_human APCS

Variant | effect of a mutation on the interaction
Y435A;F436A | decreasing interaction strength
V472A;W473A | with no effect
N434A;Y435A | with no effect
P474G;A475Q | disrupting interaction strength
I413A;W562A | decreasing interaction strength

Variants of: B1
Conditions: with samp_human APCS
Remark: another data set of the same source

Variant | effect of a mutation on the interaction
N434A;Y435A | decreasing interaction strength
